Test results from patent US20120264921A1.
Values belong to the binder of their own block, whether it stands above or below them.

Target: hepatitis B virus surface antigen (HBsAg) (Hepatitis B virus)
Test: competitive ELISA: plate-coated HBsAg, soluble HBsAg as competitor, purified IgG

fold lower affinity than HB48-35: 1.3 fold
B1: human antibody HB48-59 (antibody, V domains shown)
VH: QVQLVQSGGEVKKPGALMKVSCKASGYIFTSYGISWVRQAPGQGLEWIGWINTYSGHTNYARKFRGRVTMTWDTSTSTAYMELSSLRSDDTAVYYCARVPTWGIDYWGQGTLVTVSS
VL: DIVMTQTPLSLPVTPGEPASISCRSSQSLLHSNGYNYLDWYLQKPGQSPQLLIYLGSKRASGVPDRFSGSGSGTDFTLQISRVEAEDVGVYYCMQSTQFPPYTFGQGTKLEIKR

fold lower affinity than HB48-35: 4 fold
B2: human antibody HB48-33 (antibody, V domains shown)
VH: B1 VH
VL: QAGLTQPPSVSVAPGKTARITCGGDNIGRKSVHWYQQKTGQAPVLVVYEDNKRPSGIPERFSGSNSGNTATLTISGTQAMDEADYYCQAWDSSTVVFGGGTKLTVLG
